Residue numbers refer to the chain shown, from its start. “And” between values parts separate entries of the source, which are not always exact repeats. Equal values may be shown once.
Key:
Type in all cases: biochemical
[1] = Fingerprinting: demethylation activity on methoxy probes 1-5, Purpald colorimetric assay; conditions: formaldehyde formation, FIG. 5A
Experimental: To test the viability of compounds I-5 as probes, the fatty acid hydroxylase CYP102A1 (SEQ ID NO 1) from Bacillus megaterium and […] engineered variants thereof (SEQ ID NO 3, SEQ ID NO 4, SEQ ID NO 5, SEQ ID NO 6, SEQ ID NO 8, SEQ ID NO 11, SEQ ID NO 12, SEQ ID NO 14, SEQ ID NO 15) were fingerprinted. […] Parallel reactions with 1-5 were carried out using these P450s in purified form and a NADPH cofactor regeneration system containing a […] (PTDH).
We investigated the utility of these probes for high-throughput profiling of a large library of engineered monooxygenase variants. […] The P450 libraries were expressed in 96-well plates (DH5a cells) and screened against probes 1-5 in parallel to acquire a fingerprint for each functional P450 variant occurring in these libraries. Reactions with the probes (1 mM, 60 min) were carried out using cell lysate in the presence of the phosphite/PTDH cofactor regeneration system, and probe activity was quantified based on absorbance at 550 nm after 60-min incubation with Purpald (30 mM). […] This example illustrates how probes of general formula II such as compound 1-5 could be used for fingerprinting a large library of monooxygenases in a high throughput manner.
Expression and Fingerprinting of P450 Libraries in 96-Well Plates. 96-deep well plates containing 400 μL LB medium (100 mg ampicillin L-1) per well were inoculated with single colonies from the P450 libraries. The total number of screened P450 variants was about 10,000. In each plate, 8 wells were inoculated with the parent enzyme FL#62. […] P450 demethylation activity on probe 1-5 was measured in parallel reactions with the aid of a Beckman Coulter Multimek 96 automated pipettor and a TECAN Infinity plate reader. […] After incubation for 1 hour at room temperature, plates were added with 50 μL 2 M NaOH containing 150 mM Purpald and the absorbance at 550 nm measured using the plate reader. The measured demethylation activity of each P450 variant on the five probes was then normalized to the activity of the parent enzyme FL#62 (SEQ ID NO 15) from the same plate. […]

[2] = Monooxygenase activity on artemisinin (ART), total turnovers by HPLC after benzoyl chloride derivatization; conditions: 0.5 mM ART, 1 μM P450 variant; mol hydroxylation products/mol enzyme
Source text: Additional 5,000 FL#62-derived variants were produced by simultaneous active-site mutagenesis and subjected to high throughout fingerprinting as described in Example 2. From the acquired fingerprint data, 259 functionally diverse variants (i.e., with a unique fingerprint) were isolated according to the procedure described in Example 2 and combined with the previously isolated 261 variants (Example 2), to yield a collection of 520 functionally diverse, fingerprinted monooxygenases. […] The ART oxygenation activity of the training set P450s was characterized by LC-MS analysis of reactions with ART and each of these variants and quantified in terms of total turnovers (TTN). […] The fingerprints of the training set P450s (both ART-reactive and ART-unreactive) were then correlated with the measured ART activities (TTN values) by multiple linear regression (MLR) analysis, where ART activity is the dependent variable, Y, and the five components of their fingerprints (corresponding to the normalized activities on probes 1-5) are five independent variables (x1, x2, x3, x4, x5) potentially correlated with Y. This process yielded best-fit regression coefficients for the training set and a candidate fingerprint-based model (Y=0.44x1+0.52x2+0.44x3+0.72x4+0.47x5) predictive of ART-reactivity. […]

[3] = Regio- and stereoselectivity (site-selectivity) of ART hydroxylation, product distribution by HPLC
Source text: Additional 5,000 FL#62-derived variants were produced by simultaneous active-site mutagenesis and subjected to high throughout fingerprinting as described in Example 2. From the acquired fingerprint data, 259 functionally diverse variants (i.e., with a unique fingerprint) were isolated according to the procedure described in Example 2 and combined with the previously isolated 261 variants (Example 2), to yield a collection of 520 functionally diverse, fingerprinted monooxygenases. From this pool, twenty monooxygenases were randomly isolated to serve as the training set for generating a fingerprint model predictive of ART-reactivity and ranking the members of the monooxygenase library according to this reactivity property, as schematically illustrated in FIG. 13. The ART oxygenation activity of the training set P450s was characterized by LC-MS analysis of reactions with ART and each of these variants and quantified in terms of total turnovers (TTN). […] The fingerprints of the training set P450s (both ART-reactive and ART-unreactive) were then correlated with the measured ART activities (TTN values) by multiple linear regression (MLR) analysis, where ART activity is the dependent variable, Y, and the five components of their fingerprints (corresponding to the normalized activities on probes 1-5) are five independent variables (x1, x2, x3, x4, x5) potentially correlated with Y. This process yielded best-fit regression coefficients for the training set and a candidate fingerprint-based model (Y=0.44x1+0.52x2+0.44x3+0.72x4+0.47x5) predictive of ART-reactivity. Using this model, the remaining P450s in the 520-member collection of fingerprinted P450s were ranked (from highest to lowest predicted ART-reactivity). The 50 top-ranking variants as well as the 20 bottom-ranking variants were then tested experimentally in order to validate the predictions.
Measurement of Monooxygenase Activity on Artemisinin (ART). These isolated ART hydroxylation products were used as standards to generate calibration curves for quantifying ART-hydroxylation activity of FL#62 and the other monooxygenases. This activity was measured as total turnovers via quantification of the hydroxylation products from enzymatic reactions via derivatization with benzoyl chloride followed by HPLC analysis. Briefly, after the enzymatic reaction (0.5 mM ART, 1 μM P450 variant (purified or in cell lysate); 2 μM […], 100 μM NADP^+, 50 mM phosphoric acid), the mixture was added with 9-fluorenone as internal standard (0.5 mM) and extracted with dicholoromethane (0.2 mL). After removing the solvent, the residue was added with 0.1 mL dichloromethane, benzoyl chloride (5 equiv.), and DMAP (10 equiv.) for 3 hours at room temperature. The derivatized products (benzoyl esters) were analyzed using an Agilent 1200 UPLC. Analytical condition: Agilent XDB-C18 column (1.8 um, 4.4×50 mm); UV wavelength: 230 nm; Solvent A: 1% trifluoroacetic acid in deionized H2O; Solvent B: 1% formic acid in acetonitrile. gradient condition: 0-1 min: 20% B; 1-8 mins: 20% B to 90% B; 8-10 mins: 90% B; […]: 90% B to 20% B; 10.3-11.3 min: 20% B. Flow rate: 0.8 mL/min. The area under the curve (AUC) corresponding to the ART hydroxylated products were normalized to the internal standard AUC and used to quantify these products using the calibration curves. Total turnover numbers were calculated from number of mol hydroxylation products/mol enzyme. […]

B1: FL#41: engineered CYP102A1 variant used as reference P450 for fingerprint normalization, SEQ ID NO 3 (protein)
chain: MTIKEMPQPKTFGELKNLPLLNTDKPVQALMKIADELGEIFKFEAPGRVTRYLSSQRLIKEACDESRFDKNLSQALKFVRDFAGDGLATSWTHEKNWKKAHNILLPSFSQQAMKGYHAMMVDIAVQLVQKWERLNADEHIEVPEDMTRLTLDTIGLCGFNYRFNSFYRDQPHPFITSMVRALDEAMNKLQRANPDDPAYDENKRQFQEDIKVMNDLVDKIIADRKASGEQSDDLLTHMLNGKDPETGEPLDDENIRYQIITFLIAGHETTSGLLSFALYFLVKNPHVLQKAAEEAARVLVDPVPSYKQVKQLKYVGMVLNEALRLWPTAPAFSLYAKEDTVLGGEYPLEKGDELMVLIPQLHRDKTIWGDDVEEFRPERFENPSAIPQHAFKPFGNGQRACIGQQFALHEATLVLGMMLKHFDFEDHTNYELDIKETLTLKPEGFVVKAKSKKIPLGGIPSPSTEQSAKKVRKKAENAHNTPLLVLYGSNMGTAEGTARDLADIAMSKGFAPQVATLDSHAGNLPREGAVLIVTASYNGHPPDNAKQFVDWLDQASADEVKGVRYSVFGCGDKNWATTYQKVPAFIDETLAAKGAENIADRGEADASDDFEGTYEEWREHMWSDVAAYFNLDIENSEDNKSTLSLQFVDSAADMPLAKMHGAFSTNVVASKELQQPGSARSTRHLEIELPKEASYQEGDHLGVIPRNYEGIVNRVTARFGLDASQQIRLEAEEEKLAHLPLAKTVSVEELLQYVELQDPVTRTQLRAMAAKTVCPPHKVELEALLEKQAYKEQVLAKRLTMLELLEKYPACEMKFSEFIALLPSIRPRYYSISSSPRVDEKQASITVSVVSGEAWSGYGEYKGIASNYLAELQEGDTITCFISTPQSEFTLPKDPETPLIMVGPGTGVAPFRGFVQARKQLKEQGQSLGEAHLYFGCRSPHEDYLYQEELENAQSEGIITLHTAFSRMPNQPKTYVQHVMEQDGKKLIELLDQGAHFYICGDGSQMAPAVEATLMKSYADVHQVSEADARLWLQQLEEKGRYAKDVWAG
- probe activity on probes 1-5 (in words) [1]: minimal yet detectable activity on all five probes

B2: Wild-type CYP102A1: fatty acid hydroxylase CYP102A1 from Bacillus megaterium, SEQ ID NO 1 (protein, listed as Bacillus megaterium)
chain: B1 chain with A88F
- probe activity on probes 1-5 (in words) [1]: no activity on three out of the five probes

B3: FL#62: engineered variant of P450 monooxygenase CYP102A1, SEQ ID NO 15, parent of the libraries (protein)
chain: MTIKEMPQPKTFGELKNLPLLNTDKPVQALMKIADELGEIFKFEAPGRVTRYLSSQRLIKEACDESRFDKNLSQALKFARDSVGDGLATSWTHEKNWKKAHNILLPSFSQQAMKGYHAMMVDIAVQLVQKWERLNADEHIEVSEDMTRLTLDTIGLCGFNYRFNSFYRDQPHPFIISMVRTLDEVMNKLQRANPDDPVYDENKRQCQEDIKVMNDLVDKIIADRKARGEQSDDLLTQMLNGKDPETGEPLDDGNISYQIITFLIAGHETTSGLLSFALYFLVKNPHVLQKVAEEAARVLVDPVPSYKQVKQLKYVGMVLNEALRLWPTAPAFSLYAKEDTVLGGEYPLEKGDEVMVLIPQLHRDKTIWGDDVEEFRPERFENPSAIPQHAFKPFGNGQRACIGQQFALHEATLVLGMMLKHFDFEDHTNYELDIKETLTLKPEGFVVKAKSKKIPLGGIPSPSTEQSAKKVRKKAENAHNTPLLVLYGSNMGTAEGTARDLADIAMSKGFAPQVATLDSHAGNLPREGAVLIVTASYNGHPPDNAKQFVDWLDQASADEVKGVRYSVFGCGDKNWATTYQKVPAFIDETLAAKGAENIADRGEADASDDFEGTYEEWREHMWSDVAAYFNLDIENSEDNKSTLSLQFVDSAADMPLAKMHGAFSTNVVASKELQQPGSARSTRHLEIELPKEASYQEGDHLGVIPRNYEGIVNRVTARFGLDASQQIRLEAEEEKLAHLPLAKTVSVEELLQYVELQDPVTRTQLRAMAAKTVCPPHKVELEALLEKQAYKEQVLAKRLTMLELLEKYPACEMKFSEFIALLPSIRPRYYSISSSPRVDEKQASITVSVVSGEAWSGYGEYKGIASNYLAELQEGDTITCFISTPQSEFTLPKDPETPLIMVGPGTGVAPFRGFVQARKQLKEQGQSLGEAHLYFGCRSPHEDYLYQEELENAQSEGIITLHTAFSRMPNQPKTYVQHVMEQDGKKLIELLDQGAHFYICGDGSQMAPAVEATLMKSYADVHQVSEADARLWLQQLEEKGRYAKDVWAG
- probe activity on probes 1-5 (in words) [1]: high activity on all the probes
- total turnovers (TTN) for ART hydroxylation [2]: 340 TTN and 339 TTN
- selectivity for the desired site ((S)-C7 ART hydroxylation, regio- and stereoselectivity) [3]: 83%
- C6a-hydroxy-ART, share in product ratio C7(S):C7(R):C6a ([3]; ART hydroxylation products): 7
- C7(R)-hydroxy-ART, share in product ratio C7(S):C7(R):C6a ([3]; ART hydroxylation products): 10
- C7(S)-hydroxy-ART, share in product ratio C7(S):C7(R):C6a ([3]; ART hydroxylation products): 83
- site-selectivity value for (S)-C7 ART hydroxylation ([3]; fraction used for the fingerprint-site reactivity correlation): 0.83

Reference: US9273342B2, “Methods and systems for evaluating and predicting the reactivity of monooxygenase enzymes” (University of Rochester, priority 2011, dated 2016)
